Residue numbers refer to the chain shown, from its start. Blank lines part the entries; values can stand above or below the molecule they belong to.
Tests used:
[1] = biological target: Zebrafish PHF14PZP (278–487) (zebrafish); assay: ITC
[2] = biological target: PHF14 PZP domain, 278-487; assay: ITC; settings: reference: unmodified H3(1-15) peptide; sites T3
[3] = biological target: T1, Zebrafish PHF14PZP (278–487) (zebrafish, UniProt A0A286Y9D1 278-487); assay: crystal structure
T1 sequence: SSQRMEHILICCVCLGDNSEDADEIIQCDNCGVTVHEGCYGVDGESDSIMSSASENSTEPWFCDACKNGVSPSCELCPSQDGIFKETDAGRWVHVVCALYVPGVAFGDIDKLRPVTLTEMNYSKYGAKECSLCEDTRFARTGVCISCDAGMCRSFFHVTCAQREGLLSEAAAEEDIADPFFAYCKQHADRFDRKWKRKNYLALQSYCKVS

PHF14PZP E301A = biological target: T2, PHF14PZP E301A (zebrafish, UniProt A0A286Y9D1 278-487, E301A); assay: ITC
T2 sequence: T1 sequence with E24A

Thermal shift assay = format: physicochemical; settings: 2 mg/ml protein, 5× Sypro Orange, 100 mM NaCl, 20 mM HEPES-Na pH 7.5, 25°C to 90°C at 0.5°C per minute

Molecule: ARTKQTARKSTGG [histone H3(1–13), as joined to PHF14PZP in the fusion protein]
- binding result [3]: binds

B1: H3(1–13)-PHF14PZP: chimeric protein: H3(1–13) fused to the N-terminus of PHF14PZP (aa 278–487) through an 'SGSGS' linker (protein)
chain: ARTKQTARKSTGGSGSGSSSQRMEHILICCVCLGDNSEDADEIIQCDNCGVTVHEGCYGVDGESDSIMSSASENSTEPWFCDACKNGVSPSCELCPSQDGIFKETDAGRWVHVVCALYVPGVAFGDIDKLRPVTLTEMNYSKYGAKECSLCEDTRFARTGVCISCDAGMCRSFFHVTCAQREGLLSEAAAEEDIADPFFAYCKQHADRFDRKWKRKNYLALQSYCKVS
modifications: left off: 10xHis-SUMO, N-terminal, cleaved
- positive Tm shift versus free state PHF14PZP (Thermal shift assay): 3.2 °C

The next lines start with the values.

- Kd [1]: 12.7 µM
Molecule: unmodified histone H3(1–15) peptide (from UniProt P68431 2-16)

- KD [2]: lost; reference 12.7
Molecule: histone H3 1-15 (from UniProt P68431) H3(1-15) T3ph peptide

- fold decrease of affinity against wild-type PHF14PZP (PHF14PZP E301A): ~28 fold
Molecule: ARTKQTARKSTGGKA [unmodified histone H3(1–15) peptide]
